Earlier results on 1 substance are cited in paper PMC10188253 (Molecular pharmaceutics, 2022).

In this series the test system is B16/F10 melanoma. The conditions noted are these: ref [25].

Like-named read-outs stand apart in the source and are kept apart here.

In the case of ^64Cu-CB-TE1A1P-PEG4-LLP2A, the B16/F10 melanoma uptake was 15.1 ± 1.0 % ID/g (2 h post-injection) and 16.9 ± 2.2 % ID/g (4 h post-injection). Further, the “VLA-4-specific uptake in normal lung, bone and spleen” value (2 h post-injection) is 4.6–18.1 % ID/g.
